Measurements published in publication PMC7088854 (Molecular and Cellular Biochemistry, 2009).
Where a chain is given by its changes, count along the chain named. Numbers in names are those of the source. Each block holds one binder with its values, some of them ahead of it.

Molecular target: T1, Myc-DC-SIGNR (UniProt Q9H2X3 1-399)
T1 sequence (looked up): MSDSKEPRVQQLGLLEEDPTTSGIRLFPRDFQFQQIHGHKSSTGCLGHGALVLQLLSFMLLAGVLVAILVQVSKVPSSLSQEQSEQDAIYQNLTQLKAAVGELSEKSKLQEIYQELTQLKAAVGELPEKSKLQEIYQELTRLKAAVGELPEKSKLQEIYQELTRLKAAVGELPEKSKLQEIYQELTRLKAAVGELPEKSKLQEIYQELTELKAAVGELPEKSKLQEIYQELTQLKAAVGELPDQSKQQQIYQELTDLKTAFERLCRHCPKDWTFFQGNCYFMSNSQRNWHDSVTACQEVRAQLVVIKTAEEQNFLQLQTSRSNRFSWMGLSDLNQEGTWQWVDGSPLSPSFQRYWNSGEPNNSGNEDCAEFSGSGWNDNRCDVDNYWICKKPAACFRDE
Assay: co-IP

co-precipitated amount relative to wild-type LSECtin (onefold): 0.8 fold of wild type
B1: Flag-LSECtin D3 (deficiency of the CRD/CTLD domain) (domain or fragment, UniProt Q6UXB4 1-162, looked up)
chain: MDTTRYSKWGGSSEEVPGGPWGRWVHWSRRPLFLALAVLVTTVLWAVILSILLSKASTERAALLDGHDLLRTNASKQTAALGALKEEVGDCHSCCSGTQAQLQTTRAELGEAQAKLMEQESALRELRERVTQGLAEAGRGREDVRTELFRALEAVRLQNNSC

co-precipitated amount relative to wild-type LSECtin (onefold): 1.2 fold of wild type
B2: Flag-LSECtin D1 (deletion of the potential endocytic motif) (receptor, UniProt Q6UXB4 1-293, looked up)
chain: MDTTRGGSSEEVPGGPWGRWVHWSRRPLFLALAVLVTTVLWAVILSILLSKASTERAALLDGHDLLRTNASKQTAALGALKEEVGDCHSCCSGTQAQLQTTRAELGEAQAKLMEQESALRELRERVTQGLAEAGRGREDVRTELFRALEAVRLQNNSCEPCPTSWLSFEGSCYFFSVPKTTWAAAQDHCADASAHLVIVGGLDEQGFLTRNTRGRGYWLGLRAVRHLGKVQGYQWVDGVSLSFSHWNQGEPNDAWGRENCVMMLHTGLWNDAPCDSEKDGWICEKRHNC

co-precipitated amount relative to wild-type LSECtin (onefold): 0.8 fold of wild type
B3: Flag-LSECtin M1 (N73A) (receptor, UniProt Q6UXB4 1-293, looked up)
chain: MDTTRYSKWGGSSEEVPGGPWGRWVHWSRRPLFLALAVLVTTVLWAVILSILLSKASTERAALLDGHDLLRTAASKQTAALGALKEEVGDCHSCCSGTQAQLQTTRAELGEAQAKLMEQESALRELRERVTQGLAEAGRGREDVRTELFRALEAVRLQNNSCEPCPTSWLSFEGSCYFFSVPKTTWAAAQDHCADASAHLVIVGGLDEQGFLTRNTRGRGYWLGLRAVRHLGKVQGYQWVDGVSLSFSHWNQGEPNDAWGRENCVMMLHTGLWNDAPCDSEKDGWICEKRHNC

co-precipitated amount relative to wild-type LSECtin (onefold): 1.5 fold of wild type
B4: Flag-LSECtin M2 (N159A) (receptor, UniProt Q6UXB4 1-293, looked up)
chain: B3 chain with A73N, N159A
